The text below walks through data of paper PMC5752668 (Nature Communications, 2018).

T1: Rab32FL (Homo sapiens, UniProt Q13637)
T1 construct: gene RAB32; full length, E. coli, N-terminal His6-MBP tag cut by TEV, monomer by SEC
T1 sequence (Q13637 1-225): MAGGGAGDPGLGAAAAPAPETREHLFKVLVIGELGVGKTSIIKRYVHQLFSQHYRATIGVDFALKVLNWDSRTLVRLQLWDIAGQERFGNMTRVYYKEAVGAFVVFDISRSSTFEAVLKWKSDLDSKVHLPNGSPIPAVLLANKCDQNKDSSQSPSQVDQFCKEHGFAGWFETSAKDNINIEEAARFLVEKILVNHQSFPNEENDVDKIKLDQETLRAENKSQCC

T2: GtgE_(21-214,C45A) (truncated inactive GtgE, lysine-methylated, for crystallization) (Salmonella enterica serovar Typhimurium …, UniProt Q6EAT3 21-214, C45A, surface exposed lysine residues reductively methylated)
T2 construct: source: E. coli BL21(DE3)-RIL, purified; complex reductively methylated
T2 sequence: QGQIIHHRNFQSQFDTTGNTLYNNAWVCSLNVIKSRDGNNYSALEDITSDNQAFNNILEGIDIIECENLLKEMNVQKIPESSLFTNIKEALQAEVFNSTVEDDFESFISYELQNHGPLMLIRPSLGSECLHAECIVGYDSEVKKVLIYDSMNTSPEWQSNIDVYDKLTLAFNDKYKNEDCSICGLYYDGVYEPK

B1: Rab32FL:GDP (full-length Rab32, residues 1-225, GDP-bound) (natural protein)
chain: T1 sequence (Q13637 1-225)
notes: also called Rab32:GDP; Rab32_(1-225); source: E. coli BL21(DE3)-RIL, purified (Ni-IMAC, TEV cleavage, second IMAC, SEC)
B2: Rab32FL-Atto488 (Rab32:GDP labelled at thiol groups with Atto488-Maleimide) (natural protein)
chain: T1 sequence (Q13637 1-225)
modifications: thiol groups covalently labeled with Atto488-Maleimide
notes: also called Rab32:GDP_(fluor.); fluorescently labeled Rab32FL:GDP; source: E. coli BL21(DE3)-RIL, purified, then labelled with Atto488-Maleimide
B3: Rab32_(18-201):GDP (truncated Rab32, lysine-methylated, for crystallization) (domain or fragment)
chain: APETREHLFKVLVIGELGVGKTSIIKRYVHQLFSQHYRATIGVDFALKVLNWDSRTLVRLQLWDIAGQERFGNMTRVYYKEAVGAFVVFDISRSSTFEAVLKWKSDLDSKVHLPNGSPIPAVLLANKCDQNKDSSQSPSQVDQFCKEHGFAGWFETSAKDNINIEEAARFLVEKILVNHQSFPN
notes: source: E. coli BL21(DE3)-RIL, purified; complex reductively methylated
B4: GtgE_(FL,C45A) (full-length catalytically inactive GtgE, residues 1-228) (enzyme)
chain: MLRHIQNSLGSVYRSNTATPQGQIIHHRNFQSQFDTTGNTLYNNAWVCSLNVIKSRDGNNYSALEDITSDNQAFNNILEGIDIIECENLLKEMNVQKIPESSLFTNIKEALQAEVFNSTVEDDFESFISYELQNHGPLMLIRPSLGSECLHAECIVGYDSEVKKVLIYDSMNTSPEWQSNIDVYDKLTLAFNDKYKNEDCSICGLYYDGVYEPKPLHSSSWKDWCTIL
notes: source: E. coli BL21(DE3)-RIL, purified (Ni-IMAC, TEV cleavage, second IMAC)

Assay [1] addresses T3, Rab32_1-225:GDP:GtgE1-228,C45A complex (Homo sapiens, UniProt Q13637).
T3 construct: gene RAB32; full-length Rab32 and full-length GtgE C45A, E. coli, His6-MBP tag cut by TEV, reductively lysine-methylated complex, 1:1 heterodimer; with Cysteine protease GtgE (Salmonella enterica serovar Typhimurium SL1344)
The experiment in a line: X-ray crystallography, […] Å. Type of assay: binding. To be noted: nucleotide site of Rab32; crystals from 0.05 M imidazole pH 8, 20% PEG 6000.

The next assay has as its target T1, Rab32FL. The assay can be described thus: intrinsic GTP hydrolysis, ion-pairing RP-HPLC of nucleotide content. To be noted: intrinsic GTPase, no GAP; single-exponential fit. Type of assay: biochemical.
Assay [2] addresses B4. The experiment in a line: ITC. The conditions noted are these: both partners purified.
In assay [3] the target is B4. The experiment in a line: AUC. To be noted: both partners purified.
Assay [4] addresses T2, GtgE_(21-214,C45A) (truncated inactive …). The experiment in a line: crystal structure. The conditions noted are these: both partners purified.
Assay [5] concerns the target B1. The assay can be described thus: ITC. The conditions noted are these: both partners purified.

T3 sequence (Q6EAT3 entry or part of it C45A, one chain of several): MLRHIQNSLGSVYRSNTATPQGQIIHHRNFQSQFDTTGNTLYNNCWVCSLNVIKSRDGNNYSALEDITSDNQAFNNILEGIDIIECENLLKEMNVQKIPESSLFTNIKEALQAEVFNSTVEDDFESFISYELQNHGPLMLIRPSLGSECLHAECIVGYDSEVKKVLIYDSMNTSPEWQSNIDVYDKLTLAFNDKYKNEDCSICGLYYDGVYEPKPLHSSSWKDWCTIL

`Nc1nc2c(ncn2[C@@H]2O[C@H](COP(=O)(O)OP(=O)(O)O)[C@@H](O)[C@H]2O)c(=O)[nH]1` [GDP]: the “X-ray crystallography, 2.9 Å” value in assay [1] is on record as “The full-length Rab32:GDP:GtgEC45A structure was solved by molecular replacement”.

For `Nc1nc2c(ncn2[C@@H]2O[C@H](COP(=O)(O)OP(=O)(O)OP(=O)(O)O)[C@@H](O)[C@H]2O)c(=O)[nH]1` [GTP], the k hydr result at Rab32FL is “Rab32 has an exceptionally slow intrinsic GTPase-activity with an hydrolysis constant determined”.

On to B1, for which the affinity in assay [2], expressed as Kd, was 96 nM. This counts as double-digit nanomolar.

Regarding B2, binding in assay [3] was characterised by a dissociation constant (Kd) of 118 nM.

Consider B3, for which, in assay [4], the binding result was “binds”.

As to B4, the “stoichiometry N” value in assay [5] was found to be 1.

As usually defined, the Kd is the equilibrium constant for the complex coming apart. Higher therefore signals a looser complex. By stoichiometry N is commonly meant the number of molecules, sites or subunits per partner or assembly.
